The text below walks through data of US20200010534A1 (SAGABIO, published 2020).

Test [1] deals with T1, HpHSP60 fragment Δ[5], positions 101-168 of HpHSP60 (Helicobacter pylori, UniProt B2UW12 101-168).
T1 sequence: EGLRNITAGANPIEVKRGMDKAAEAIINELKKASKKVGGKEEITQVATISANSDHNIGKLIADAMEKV
The experiment in a line: recognition of HpHSP60 fragments by the antibody (spot/blot, FIG. 16).

Test [2] addresses T2, HpHSP60 fragment Δ[1], positions 134-200 of HpHSP60 (Helicobacter pylori, UniProt B2UW12 134-200).
T2 sequence: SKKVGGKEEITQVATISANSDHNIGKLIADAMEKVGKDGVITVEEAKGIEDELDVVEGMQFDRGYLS
Described as above.

Test [3] deals with T3, HpHSP60 fragment including positions 101-200 (Helicobacter pylori, UniProt B2UW12 101-200).
T3 construct: also called HSP 60 101-200
T3 sequence: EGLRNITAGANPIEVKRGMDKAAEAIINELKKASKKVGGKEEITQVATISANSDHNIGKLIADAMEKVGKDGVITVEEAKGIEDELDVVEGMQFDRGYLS
Put plainly: recognition of HpHSP60 fragments by the antibody (spot/blot, FIG. 15).

B1: LHP-1 (9E4) antibody (antibody, V domains shown)
VH: EVHLVESGGDLVKPGGSLKLSCAASGFTFSSFGMSWVRQTPDKRLEWVATISNGGSYTYYPDSVKGRFTISRDNAKNTLYLQMSSLKSEDTAMYYCTRQGLRRRGAMDYWGQGTSVTVSS
VL: DIVLTQSPASLAVSLGQRATISCKASQSVDYDGDVFLNWYQQKPGQPPKLLIYAASNLESGIPARFSGSGSGTDFTLNIHPVEEDDAATYYCQQSNEVPWTFGGGTKLEIK
notes: Mouse monoclonal antibody from hybridoma 9E4 (ATCC PTA-122900); The variable regions are tied to the deposited hybridoma only in the claims; also called LHP-1 (9E4) mAb; monoclonal antibody produced by hybridoma ATCC PTA-122900
For B1, the results for the binding result in test [1], in test [2] and in test [3] were “no binding”, “binds” and “binds”, respectively.
